Measurements reported in the supplement of paper PMC9112550, “Optimization of the antimicrobial peptide Bac7 by deep mutational scanning” (BMC Biology, 2022).

Test system: Escherichia coli TOP10
Assay: shrunken log2 fold change of peptide-encoding DNA abundance (4.5 h post-induction vs induction); higher = less antimicrobial activity (less host growth inhibition)
Settings: time post-induction: 4.5 h; library: site-saturation at positions 5, 18, 19, 20
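Further: peptides expressed intracellularly from a pBAD plasmid library in pooled LB shake-flask culture, induced with 0.3% L-arabinose, DNA abundance read by NGS, three biological replicates, DESeq2 with apeglm shrinkage.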

Row | Sequence | shrunken log2 fold change
1 | RRIRVRPPRLPRPRPRPMEYPRP | -0.0697
2 | RRIRVRPPRLPRPRPRPMFAPRP | -0.0323
3 | RRIRVRPPRLPRPRPRPMFQPRP | -0.267
4 | RRIRVRPPRLPRPRPRPMGLPRP | -0.00681
5 | RRIRVRPPRLPRPRPRPMHAPRP | -0.00559
6 | RRIRVRPPRLPRPRPRPMHWPRP | 0.253
7 | RRIRVRPPRLPRPRPRPMICPRP | -0.0606
8 | RRIRVRPPRLPRPRPRPMIHPRP | -0.465
9 | RRIRVRPPRLPRPRPRPMINPRP | -0.257
10 | RRIRVRPPRLPRPRPRPMKMPRP | -0.0573
11 | RRIRVRPPRLPRPRPRPMKRPRP | 0.0336
12 | RRIRVRPPRLPRPRPRPMNKPRP | -0.403
13 | RRIRVRPPRLPRPRPRPMRDPRP | 0.0208
14 | RRIRVRPPRLPRPRPRPMRHPRP | -0.00914
15 | RRIRVRPPRLPRPRPRPMSGPRP | -0.0469
16 | RRIRVRPPRLPRPRPRPMSVPRP | 0.0581
17 | RRIRVRPPRLPRPRPRPMTCPRP | -0.141
18 | RRIRVRPPRLPRPRPRPMTGPRP | -0.0967
19 | RRIRVRPPRLPRPRPRPMVCPRP | -0.062
20 | RRIRVRPPRLPRPRPRPMVKPRP | -0.166
21 | RRIRVRPPRLPRPRPRPMVNPRP | -0.158
22 | RRIRVRPPRLPRPRPRPMVWPRP | 0.117
23 | RRIRVRPPRLPRPRPRPMWHPRP | 0.0166
24 | RRIRVRPPRLPRPRPRPMWLPRP | 0.0511
25 | RRIRVRPPRLPRPRPRPMYAPRP | -0.17

Row | Sequence | shrunken log2 fold change
26 | RRIRVRPPRLPRPRPRPNAPPRP | 0.379
27 | RRIRVRPPRLPRPRPRPNAWPRP | 0.0914
28 | RRIRVRPPRLPRPRPRPNCIPRP | -0.213
29 | RRIRVRPPRLPRPRPRPNENPRP | -0.349
30 | RRIRVRPPRLPRPRPRPNERPRP | 0.0435
31 | RRIRVRPPRLPRPRPRPNFDPRP | -0.0598
32 | RRIRVRPPRLPRPRPRPNFRPRP | 0.19
33 | RRIRVRPPRLPRPRPRPNGGPRP | 0.0985
34 | RRIRVRPPRLPRPRPRPNGSPRP | 0.00532
35 | RRIRVRPPRLPRPRPRPNIDPRP | -0.258
36 | RRIRVRPPRLPRPRPRPNMKPRP | -0.524
37 | RRIRVRPPRLPRPRPRPNMYPRP | 0.0145
38 | RRIRVRPPRLPRPRPRPNNGPRP | -0.497
39 | RRIRVRPPRLPRPRPRPNNMPRP | -0.537
40 | RRIRVRPPRLPRPRPRPNPVPRP | -0.242
41 | RRIRVRPPRLPRPRPRPNQCPRP | -0.264
42 | RRIRVRPPRLPRPRPRPNQEPRP | -0.176
43 | RRIRVRPPRLPRPRPRPNRQPRP | -0.326
44 | RRIRVRPPRLPRPRPRPNRTPRP | 0.0905
45 | RRIRVRPPRLPRPRPRPNSTPRP | -0.515
46 | RRIRVRPPRLPRPRPRPNSYPRP | -0.309
47 | RRIRVRPPRLPRPRPRPNVFPRP | 0.0413
48 | RRIRVRPPRLPRPRPRPNVHPRP | -0.546
49 | RRIRVRPPRLPRPRPRPNWFPRP | 0.0817
50 | RRIRVRPPRLPRPRPRPNWRPRP | 0.4

Row | Sequence | shrunken log2 fold change
51 | RRIRVRPPRLPRPRPRPNWSPRP | -0.114
52 | RRIRVRPPRLPRPRPRPNYIPRP | -0.631
53 | RRIRVRPPRLPRPRPRPPDYPRP | -0.114
54 | RRIRVRPPRLPRPRPRPPFHPRP | 0.0102
55 | RRIRVRPPRLPRPRPRPPFKPRP | 0.163
56 | RRIRVRPPRLPRPRPRPPFQPRP | 0.164
57 | RRIRVRPPRLPRPRPRPPGKPRP | 0.0564
58 | RRIRVRPPRLPRPRPRPPIKPRP | -0.151
59 | RRIRVRPPRLPRPRPRPPILPRP | -0.313
60 | RRIRVRPPRLPRPRPRPPKGPRP | 0.18
61 | RRIRVRPPRLPRPRPRPPLDPRP | 0.433
62 | RRIRVRPPRLPRPRPRPPLYPRP | -0.00849
63 | RRIRVRPPRLPRPRPRPPMWPRP | 0.303
64 | RRIRVRPPRLPRPRPRPPPFPRP | 0.375
65 | RRIRVRPPRLPRPRPRPPPGPRP | 1.01
66 | RRIRVRPPRLPRPRPRPPPLPRP | 0.669
67 | RRIRVRPPRLPRPRPRPPPWPRP | 0.758
68 | RRIRVRPPRLPRPRPRPPQQPRP | 0.575
69 | RRIRVRPPRLPRPRPRPPRHPRP | 0.252
70 | RRIRVRPPRLPRPRPRPPRIPRP | 0.116
71 | RRIRVRPPRLPRPRPRPPSTPRP | 0.238
72 | RRIRVRPPRLPRPRPRPPTNPRP | 1.14
73 | RRIRVRPPRLPRPRPRPPWRPRP | 0.57
74 | RRIRVRPPRLPRPRPRPPYVPRP | -0.153
75 | RRIRVRPPRLPRPRPRPQAKPRP | 0.0434

Row | Sequence | shrunken log2 fold change
76 | RRIRVRPPRLPRPRPRPQEIPRP | -0.0438
77 | RRIRVRPPRLPRPRPRPQFSPRP | -0.0362
78 | RRIRVRPPRLPRPRPRPQGFPRP | -0.0921
79 | RRIRVRPPRLPRPRPRPQGWPRP | 0.522
80 | RRIRVRPPRLPRPRPRPQGYPRP | 0.0811
81 | RRIRVRPPRLPRPRPRPQHDPRP | -0.0871
82 | RRIRVRPPRLPRPRPRPQITPRP | -0.229
83 | RRIRVRPPRLPRPRPRPQKPPRP | 0.116
84 | RRIRVRPPRLPRPRPRPQKYPRP | -0.783
85 | RRIRVRPPRLPRPRPRPQLFPRP | 0.229
86 | RRIRVRPPRLPRPRPRPQLNPRP | -0.292
87 | RRIRVRPPRLPRPRPRPQMKPRP | -0.0794
88 | RRIRVRPPRLPRPRPRPQPNPRP | -0.125
89 | RRIRVRPPRLPRPRPRPQPVPRP | -0.195
90 | RRIRVRPPRLPRPRPRPQQPPRP | 0.124
91 | RRIRVRPPRLPRPRPRPQSCPRP | -0.342
92 | RRIRVRPPRLPRPRPRPQSEPRP | -0.107
93 | RRIRVRPPRLPRPRPRPQSPPRP | -0.221
94 | RRIRVRPPRLPRPRPRPQSQPRP | -0.214
95 | RRIRVRPPRLPRPRPRPQTQPRP | 0.104
96 | RRIRVRPPRLPRPRPRPQWVPRP | -0.222
97 | RRIRVRPPRLPRPRPRPQYKPRP | -0.527
98 | RRIRVRPPRLPRPRPRPRAKPRP | 0.16
99 | RRIRVRPPRLPRPRPRPRCEPRP | 0.133
100 | RRIRVRPPRLPRPRPRPREPPRP | 0.947

Row | Sequence | shrunken log2 fold change
101 | RRIRVRPPRLPRPRPRPRFEPRP | 0.376
102 | RRIRVRPPRLPRPRPRPRFWPRP | 0.64
103 | RRIRVRPPRLPRPRPRPRGRPRP | 0.197
104 | RRIRVRPPRLPRPRPRPRIHPRP | -0.219
105 | RRIRVRPPRLPRPRPRPRILPRP | -0.412
106 | RRIRVRPPRLPRPRPRPRKLPRP | -0.0444
107 | RRIRVRPPRLPRPRPRPRMEPRP | 0.413
108 | RRIRVRPPRLPRPRPRPRMIPRP | 0.224
109 | RRIRVRPPRLPRPRPRPRMQPRP | 0.123
110 | RRIRVRPPRLPRPRPRPRNAPRP | 0.225
111 | RRIRVRPPRLPRPRPRPRNDPRP | -0.00857
112 | RRIRVRPPRLPRPRPRPRRNPRP | 0.108
113 | RRIRVRPPRLPRPRPRPRRSPRP | 0.349
114 | RRIRVRPPRLPRPRPRPRSFPRP | 0.029
115 | RRIRVRPPRLPRPRPRPRSTPRP | 0.0765
116 | RRIRVRPPRLPRPRPRPRTFPRP | -0.284
117 | RRIRVRPPRLPRPRPRPRVEPRP | 0.558
118 | RRIRVRPPRLPRPRPRPRVMPRP | 0.188
119 | RRIRVRPPRLPRPRPRPRVSPRP | 0.205
120 | RRIRVRPPRLPRPRPRPRWDPRP | 0.193
121 | RRIRVRPPRLPRPRPRPRWEPRP | 0.329
122 | RRIRVRPPRLPRPRPRPRWHPRP | 0.217
123 | RRIRVRPPRLPRPRPRPRWYPRP | -0.232
124 | RRIRVRPPRLPRPRPRPRYAPRP | -0.000525
125 | RRIRVRPPRLPRPRPRPSALPRP | -0.0271

Row | Sequence | shrunken log2 fold change
126 | RRIRVRPPRLPRPRPRPSCPPRP | -0.245
127 | RRIRVRPPRLPRPRPRPSDLPRP | -0.196
128 | RRIRVRPPRLPRPRPRPSDVPRP | -0.184
129 | RRIRVRPPRLPRPRPRPSDWPRP | -0.102
130 | RRIRVRPPRLPRPRPRPSFSPRP | -0.498
131 | RRIRVRPPRLPRPRPRPSFYPRP | -0.872
132 | RRIRVRPPRLPRPRPRPSGSPRP | -0.0176
133 | RRIRVRPPRLPRPRPRPSLDPRP | -0.0324
134 | RRIRVRPPRLPRPRPRPSLPPRP | -0.226
135 | RRIRVRPPRLPRPRPRPSMCPRP | -0.528
136 | RRIRVRPPRLPRPRPRPSMHPRP | -0.177
137 | RRIRVRPPRLPRPRPRPSMYPRP | 0.531
138 | RRIRVRPPRLPRPRPRPSQGPRP | -0.371
139 | RRIRVRPPRLPRPRPRPSTMPRP | -0.213
140 | RRIRVRPPRLPRPRPRPSYAPRP | -0.477
141 | RRIRVRPPRLPRPRPRPTAEPRP | 0.0994
142 | RRIRVRPPRLPRPRPRPTAWPRP | 0.145
143 | RRIRVRPPRLPRPRPRPTDGPRP | 0.0478
144 | RRIRVRPPRLPRPRPRPTDKPRP | -0.0288
145 | RRIRVRPPRLPRPRPRPTEPPRP | 0.128
146 | RRIRVRPPRLPRPRPRPTERPRP | 0.302
147 | RRIRVRPPRLPRPRPRPTETPRP | 0.0324
148 | RRIRVRPPRLPRPRPRPTFLPRP | -0.0973
149 | RRIRVRPPRLPRPRPRPTFRPRP | 0.218
150 | RRIRVRPPRLPRPRPRPTGEPRP | 0.187
